Measurements published in the supplement of paper PMC10724198.
± gives the standard deviation of the averaged measurements.
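Note: PSI is a weighted mean of sequencing reads over stability bins, variants kept only with over 10 reads, mCherry proximal and sfGFP distal, peptide attached via GGGS linker.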

What follows are sequences tested on Saccharomyces cerevisiae (assay: protein stability index of tFT-peptide fusion (C-terminal peptide) (PSI (0-1 scale)); higher = more stable (slower turnover)). Settings: genetic background: doa10 deletion; temperature: 30 C.
Method: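 MPS profiling in S. cerevisiae of the tFT-X12 degron library: putative degron peptides plus stable controls, 12 aa, fused to the C-terminus of a sfGFP-mCherry timer. Cells are FACS-sorted into 8 mCherry/sfGFP bins and deep-sequenced. PSI runs from 0 (unstable) to 1 (stable). Backgrounds are wild type, das1Δ and doa10Δ at 30 °C, and wild type, das1Δ, cdc34-1 and cdc53-1 at 37 °C; 2-3 technical replicates each.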
Sequence CREFLQSMLFYC has a protein stability index of 0.241 ± 0.016.
CSAVYNLHLLYS gave a protein stability index of 0.469 ± 0.04.
Work on CSFPTFRSLLLL yielded a protein stability index of 0.218 ± 0.0036.
Work on CSPSCNIVRLVS yielded a protein stability index of 0.11 ± 0.018.
CTYSLSVLFVFF gave a protein stability index of 0.252 ± 0.012.
In the case of CVFFCVLVCFLS, the protein stability index is reported as 0.317 ± 0.0066.
Sequence CVLSWSLFVVVW has a protein stability index of 0.0209 ± 0.0017.
Sequence CVVFLWCGGCWV has a protein stability index of 0.344 ± 0.023.
CVVLCLFCWCML was tested, and the protein stability index was 0.32968 ± 0.00016.
CYCSIGCLIIFS was tested, and the protein stability index was 0.206 ± 0.0053.
DALHPCIIYLTC gave a protein stability index of 0.217 ± 0.0055.
For DECQLCNRDWRG, the protein stability index was 0.644 ± 0.032.
Sequence DKKPMKKILLCI has a protein stability index of 0.0933 ± 0.02.
DRLRSGLSLLLA gave a protein stability index of 0.365 ± 0.015.
With DRQMRCVHIHYL the protein stability index was 0.275 ± 0.016.
DRYSFYGYVVVL gave a protein stability index of 0.1728 ± 0.0011.
With DVCGVRYVLFVL the protein stability index was 0.416 ± 0.0086.
DVRLVLCEMIKG showed a protein stability index of 0.394 ± 0.021.
For DVYIVLFIIKHG, the protein stability index was 0.173 ± 0.0021.
In the case of EFFTLYDLVRFI, the protein stability index is reported as 0.192 ± 0.00011.
ELTYVYRTALIA was tested, and the protein stability index was 0.0966 ± 0.011.
Work on EMSIISVLRVIS yielded a protein stability index of 0.181 ± 0.011.
ERFILVGMFGSW showed a protein stability index of 0.532 ± 0.026.
With ERWSPWIVVFTN the protein stability index was 0.173 ± 0.019.
ESVPLLIVLHLV showed a protein stability index of 0.0857 ± 0.02.
In the case of ETVHVISLIAIG, the protein stability index is reported as 0.279 ± 0.014.
With EWFFCLGLFRFH the protein stability index was 0.208 ± 0.022.
Work on FASVFCVVTGYV yielded a protein stability index of 0.406 ± 0.01.
FCALWLCFRLMV showed a protein stability index of 0.14 ± 0.014.
For FCCLVLDLEVSG, the protein stability index was 0.331 ± 0.0069.
With FCLFMFVPLLPL the protein stability index was 0.4421 ± 0.0041.
FCMLCVVFLGSL gave a protein stability index of 0.358 ± 0.01.
With FCVCLAVTCCGG the protein stability index was 0.215 ± 0.0029.
FDWLFFFVNFVV was tested, and the protein stability index was 0.174 ± 0.0022.
Work on FFAFLRFFIFYW yielded a protein stability index of 0.419 ± 0.0083.
FFALFLPLACFC showed a protein stability index of 0.353 ± 0.023.
FFCCFVFVLGFC gave a protein stability index of 0.283 ± 0.014.
For FFCSILLGIILL, the protein stability index was 0.47 ± 0.0098.
FFFCFFIFCFSL was tested, and the protein stability index was 0.335 ± 0.046.
In the case of FFFFSFFLATFS, the protein stability index is reported as 0.264 ± 0.029.
Sequence FFGVFIFPVSCR has a protein stability index of 0.174 ± 0.0071.
FFGVLFRVSLFF was tested, and the protein stability index was 0.175 ± 0.0079.
FFLLLLRPPLVM showed a protein stability index of 0.276 ± 0.0029.
FFRFCFLLLASS showed a protein stability index of 0.197 ± 0.019.
With FFSRSLGAGVAA the protein stability index was 0.5962 ± 0.0036.
With FFVEFFLLCFCS the protein stability index was 0.476 ± 0.0075.
FFVSFFFFLWLV was tested, and the protein stability index was 0.278 ± 0.038.
FGFFDIKLPVVA was tested, and the protein stability index was 0.345 ± 0.012.
In the case of FGVECDLCLFCC, the protein stability index is reported as 0.2392 ± 0.0022.
Work on FGVVRVSIPVGV yielded a protein stability index of 0.184 ± 0.005.
For FIFCLSCGVWGG, the protein stability index was 0.49 ± 0.026.
In the case of FILLFGFSHWVW, the protein stability index is reported as 0.364 ± 0.019.
In the case of FILLTLVFGCAS, the protein stability index is reported as 0.196 ± 0.0089.
Sequence FLAFLEPRVCCA has a protein stability index of 0.21 ± 0.0091.
FLAFSYIRLLFF showed a protein stability index of 0.135 ± 0.017.
FLCWLSFIPLLS gave a protein stability index of 0.418 ± 0.019.
FLFFCGWVSLFG gave a protein stability index of 0.333 ± 0.0056.
For FLFFMGVGVVLY, the protein stability index was 0.35 ± 0.039.
Work on FLFIFFFFLISF yielded a protein stability index of 0.344 ± 0.0055.
FLFLFLFPFSLI showed a protein stability index of 0.393 ± 0.0097.
